Results as given in patent US20250145711A1 (Janssen / Centocor, published 2025).

Columns and labels:
[1] = molecular target: T1, CD3 on primary human pan T cells (human, UniProt P07766 23-207); experiment: flow cytometry, pan T-cells
T1 construct: on cells it stands in the TCR/CD3 complex; also called Pan T-cells (CD3-positive); endogenous CD3
Method: ELISA assays for binding to recombinant CD3 (TRCW5, SEQ ID NO: 39) were performed as above. Cell binding was performed using primary human T cell and Jurkat cells by flow cytometry. Briefly, E. coli expressed anti CD3 ScFv supernatants, either at room temperature, or 55° C., 60° C. or 65° C. heat treated samples.
Pan T-cells (CD3-positive) and Jurkat-CD3-negative cells were prepared by staining Jurkat-CD3-negative cells with CFSE while keeping pan T-cells unstained. Jurkat-CD3-negative cell suspensions were resuspended at 20 million cells per each 50 mL conical tube. Cells were harvested by centrifugation at 400×g for 5 minutes and resuspended in DPBS followed by washing 2× in DPBS. Cells were stained with 1:25,000 dilution for a final dye concentration of 0.02 uM CFSE (2 uL of staining solution to 50 mL of cell suspension). Cells were incubated for 10 minutes at room temperature and centrifuged for 5 minutes at 400×g. After removal of supernatant, 3 mL of HI-FBS were added to the cell pellet, mixed and centrifuged for 5 min at 400×g. Supernatant was removed and cells were resuspended in BD stain buffer at 2×10\hat{ }6 cells/mL and incubated on ice or 4 C protected from light. Human pan T cells were thawed at 37 C and transferred gently into a conical tube containing 15 mL of warm or RT culture media (RPMI+10% FBS). […] Cells were harvested by centrifugation at 400×g for 5 min and resuspended in culture media (RPMI+10% HI-FBS). Pan T-cells (without staining) were prepared at 2×10\hat{ }6 cells/mL in flow staining buffer. Equal volumes of CFSE stained Jurkat-CD3-negative cells and unstained T-cells (CD3-positive) cells were mixed and plated 50 uL/well into assay plates. 50 uL/well neat bacterial supernatant samples and control sample (CD3W36 ScFv) were added to each well and plates were incubated 1 hr at 4 C or. Cells were harvested by centrifugation at 400×g for 4 min and 150 uL staining buffer were added to all wells, followed by centrifugation at 400×g for 4 min to pellet cells. To each well, 150 uL staining buffer were added followed by centrifugation at 400×g for 4 minutes to pellet cells.

[2] = molecular target: T2, TRCW5 antigen (CD3δε-Fc-Avi) (biotinylated (site not stated)); experiment: ELISA after heat
T2 construct: also called recombinant CD3
T2 sequence (chain, as listed by the source mutant limits assumed): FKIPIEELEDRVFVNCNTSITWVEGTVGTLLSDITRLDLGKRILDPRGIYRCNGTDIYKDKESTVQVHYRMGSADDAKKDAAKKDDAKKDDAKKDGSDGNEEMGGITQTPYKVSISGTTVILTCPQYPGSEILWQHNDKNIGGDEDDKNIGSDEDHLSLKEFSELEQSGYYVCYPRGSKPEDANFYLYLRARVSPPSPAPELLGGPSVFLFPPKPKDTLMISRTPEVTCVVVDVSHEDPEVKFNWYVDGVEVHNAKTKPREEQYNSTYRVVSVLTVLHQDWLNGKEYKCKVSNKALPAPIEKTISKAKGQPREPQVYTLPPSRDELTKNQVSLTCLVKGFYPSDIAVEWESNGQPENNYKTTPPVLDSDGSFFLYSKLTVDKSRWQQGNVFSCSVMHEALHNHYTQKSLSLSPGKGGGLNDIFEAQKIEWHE

T1 sequence (P07766 23-207 limits assumed): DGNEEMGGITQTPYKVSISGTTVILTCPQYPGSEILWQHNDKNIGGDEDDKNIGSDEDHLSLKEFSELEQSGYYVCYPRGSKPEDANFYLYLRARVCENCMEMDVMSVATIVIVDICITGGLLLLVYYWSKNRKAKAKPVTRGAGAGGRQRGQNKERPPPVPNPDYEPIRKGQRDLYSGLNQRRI

% Binding retained on T-cells, 55° C. [1] | % Binding retained on T-cells, 60° C. [1] | % Binding retained on T-cells, 65° C. [1] | % Binding retained on T-cells, RT [1] | % Retained 55° C. [2] | % Retained 60° C. [2] | % Retained 65° C. [2] | Binder
1.14 fraction | 1.33 fraction | 0.156 fraction | 1 fraction | 115% | 112% | 48% | CD3B2065 (scFv) scFv: QVQLVQSGAEVKKPGSSVKVSCKASGYTFTRSTMHWVKQAPGQGLEWIGYINPSSAYTNYAQKFQGRVTLTADKSTSTAYMELSSLRSEDTAVYYCASPQVHYDYNGFPYWGQGTLVTVSSGGSEGKSSGSGSESKSTGGSEIVLTQSPATLSASPGERVTLSCSASSSVSYMNWYQQKPGQAPRRWIYDSSKLASGVPARFSGSGSGRDYTLTISSLEPEDFAVYYCQQWSRNPPTFGGGTKVEIK
1.07 fraction | 1.13 fraction | 0.0573 fraction | 1 fraction | 109% | 108% | 17% | CD3B2080 (scFv) scFv: QVQLVQSGAEVKKPGSSVKVSCKASGYTFTRSTMHWVRQAPGQGLEWIGYINPSSAYTNYAQKFQGRVTLTADKSTSTAYMELSSLRSEDTAVYYCASPQVHYDYNGFPYWGQGTLVTVSSGGSEGKSSGSGSESKSTGGSEIVLTQSPATLSASPGERVTLSCSASSSVSYMNWYQQKPGQSPRRWIYDSSKLASGVPARFSGSGSGRDYTLTISSLEPEDFAVYYCQQWSRNPPTFGGGTKVEIK
0.872 fraction | 1.27 fraction | 0.0933 fraction | 1 fraction | 117% | 111% | 17% | CD3B2072 (scFv) scFv: QVQLVQSGAEVKKPGSSVKVSCKASGYTFTRSTMHWVRQAPGQGLEWMGYINPSSAYTNYNQKFQGRVTLTADKSTSTAYMELSSLRSEDTAVYYCASPQVHYDYNGFPYWGQGTLVTVSSGGSEGKSSGSGSESKSTGGSEIVLTQSPATLSASPGERVTLSCSASSSVSYMNWYQQKPGQSPRRWIYDSSKLASGVPARFSGSGSGRDYTLTISSLEPEDFAVYYCQQWSRNPPTFGGGTKVEIK
1.01 fraction | 1.12 fraction | 0.0404 fraction | 1 fraction | 104% | 96% | 5% | CD3B2086 (scFv) scFv: QVQLVQSGAEVKKPGSSVKVSCKASGYTFTRSTMHWVRQAPGQGLEWMGYINPSSAYTNYAQKFQGRVTLTADKSTSTAYMELSSLRSEDTAVYYCASPQVHYDYNGFPYWGQGTLVTVSSGGSEGKSSGSGSESKSTGGSEIVLTQSPATLSASPGERVTLSCSASSSVSYMNWYQQKPGTSPRRLIYDSSKLASGVPARFSGSGSGRDYTLTISSLEPEDFAVYYCQQWSRNPPTFGGGTKVEIK
1.08 fraction | 1.48 fraction | 0.11 fraction | 1 fraction | 114% | 109% | 17% | CD3B2069 (scFv) scFv: QVQLVQSGAEVKKPGSSVKVSCKASGYTFTRSTMHWVRQAPGQGLEWMGYINPSSAYTNYNQKFQGRVTLTADKSTSTAYMELSSLRSEDTAVYYCASPQVHYDYNGFPYWGQGTLVTVSSGGSEGKSSGSGSESKSTGGSEIVLTQSPATLSASPGERVTLSCSASSSVSYMNWYQQKPGTAPRRWIYDSSKLASGVPARFSGSGSGRDYTLTISSLEPEDFAVYYCQQWSRNPPTFGGGTKVEIK
1.03 fraction | 1.1 fraction | 0.307 fraction | 1 fraction | 106% | 107% | 22% | CD3B2077 (scFv) scFv: QVQLVQSGAEVKKPGSSVKVSCKASGYTFTRSTMHWVRQAPGQGLEWIGYINPSSAYTNYAQKFQGRVTLTADKSTSTAYMELSSLRSEDTAVYYCASPQVHYDYNGFPYWGQGTLVTVSSGGSEGKSSGSGSESKSTGGSEIVLTQSPATLSASPGERVTLSCSASSSVSYMNWYQQKPGTAPRRWIYDSSKLASGVPARFSGSGSGRDYTLTISSLEPEDFAVYYCQQWSRNPPTFGGGTKVEIK
1.01 fraction | 0.899 fraction | 0.12 fraction | 1 fraction | 103% | 88% | 4% | CD3B2071 (scFv) scFv: QVQLVQSGAEVKKPGSSVKVSCKASGYTFTRSTMHWVRQAPGQGLEWMGYINPSSAYTNYNQKFQGRVTLTADKSTSTAYMELSSLRSEDTAVYYCASPQVHYDYNGFPYWGQGTLVTVSSGGSEGKSSGSGSESKSTGGSEIVLTQSPATLSASPGERVTLSCSASSSVSYMNWYQQKPGTAPRRLIYDSSKLASGVPARFSGSGSGRDYTLTISSLEPEDFAVYYCQQWSRNPPTFGGGTKVEIK
0.993 fraction | 1.1 fraction | 0.348 fraction | 1 fraction | 113% | 110% | 27% | CD3B2073 (scFv) scFv: QVQLVQSGAEVKKPGSSVKVSCKASGYTFTRSTMHWVRQAPGQGLEWMGYINPSSAYTNYNQKFQGRVTLTADKSTSTAYMELSSLRSEDTAVYYCASPQVHYDYNGFPYWGQGTLVTVSSGGSEGKSSGSGSESKSTGGSEIVLTQSPATLSASPGERVTLSCSASSSVSYMNWYQQKPGQAPRRWIYDSSKLASGVPARFSGSGSGRDYTLTISSLEPEDFAVYYCQQWSRNPPTFGGGTKVEIK
1.11 fraction | 0.682 fraction | 0.276 fraction | 1 fraction | 114% | 116% | 9% | CD3B2082 (scFv) scFv: QVQLVQSGAEVKKPGSSVKVSCKASGYTFTRSTMHWVRQAPGQGLEWMGYINPSSAYTNYAQKFQGRVTLTADKSTSTAYMELSSLRSEDTAVYYCASPQVHYDYNGFPYWGQGTLVTVSSGGSEGKSSGSGSESKSTGGSEIVLTQSPATLSASPGERVTLSCSASSSVSYMNWYQQKPGTSPRRWIYDSSKLASGVPARFSGSGSGRDYTLTISSLEPEDFAVYYCQQWSRNPPTFGGGTKVEIK
1.01 fraction | 0.762 fraction | 0.0574 fraction | 1 fraction | 107% | 88% | 2% | CD3B2078 (scFv) scFv: QVQLVQSGAEVKKPGSSVKVSCKASGYTFTRSTMHWVRQAPGQGLEWIGYINPSSAYTNYAQKFQGRVTLTADKSTSTAYMELSSLRSEDTAVYYCASPQVHYDYNGFPYWGQGTLVTVSSGGSEGKSSGSGSESKSTGGSEIVLTQSPATLSASPGERVTLSCSASSSVSYMNWYQQKPGTSPRRLIYDSSKLASGVPARFSGSGSGRDYTLTISSLEPEDFAVYYCQQWSRNPPTFGGGTKVEIK
1.04 fraction | 1.2 fraction | 0.102 fraction | 1 fraction | 112% | 114% | 38% | CD3B2081 (scFv) scFv: QVQLVQSGAEVKKPGSSVKVSCKASGYTFTRSTMHWVRQAPGQGLEWIGYINPSSAYTNYAQKFQGRVTLTADKSTSTAYMELSSLRSEDTAVYYCASPQVHYDYNGFPYWGQGTLVTVSSGGSEGKSSGSGSESKSTGGSEIVLTQSPATLSASPGERVTLSCSASSSVSYMNWYQQKPGQAPRRWIYDSSKLASGVPARFSGSGSGRDYTLTISSLEPEDFAVYYCQQWSRNPPTFGGGTKVEIK
1.06 fraction | 0.979 fraction | 0.116 fraction | 1 fraction | 111% | 92% | 2% | CD3B2079 (scFv) scFv: QVQLVQSGAEVKKPGSSVKVSCKASGYTFTRSTMHWVRQAPGQGLEWIGYINPSSAYTNYAQKFQGRVTLTADKSTSTAYMELSSLRSEDTAVYYCASPQVHYDYNGFPYWGQGTLVTVSSGGSEGKSSGSGSESKSTGGSEIVLTQSPATLSASPGERVTLSCSASSSVSYMNWYQQKPGTAPRRLIYDSSKLASGVPARFSGSGSGRDYTLTISSLEPEDFAVYYCQQWSRNPPTFGGGTKVEIK
